# Reference: patent US20220356229A1 (published 2022)
# Where a chain is given by its changes, count along the chain named.
# B1: antibody 477 (antibody, V domains shown)
# VH: QVQLVESGGGVVQPGRSLRLSCAASGITFSSYAMHWVRQAPGKGLEWVAVISYDGSDKYHADSVKGRFAISRDNSKNTLYLQMNSLRAEDTAVYYCAKDKGIAVAGTGWIRPDPEYYFDYWGQGTLVTVSS
# VL: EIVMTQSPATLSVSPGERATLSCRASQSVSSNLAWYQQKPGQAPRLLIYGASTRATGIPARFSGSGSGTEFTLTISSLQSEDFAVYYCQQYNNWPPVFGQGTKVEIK
# B2: antibody 439 (antibody, V domains shown)
# VH: QVQLVESGGGVVQPGRSLRLSCAASGFTFSSYAMHWVRQAPGKGLEWVAVISYDGSNKYYADSVKGRFTISRDNSKNTLYLQMNSLRAEDTAVYYCARPPRGGSYYPFDPWGQGTLVTVSS
# VL: not shown
# B3: antibody 470 (antibody, V domains shown)
# VH: not shown
# VL: QSALTQPASVSGSPGQSITISCTGTSSDVGSYNLVSWYQQHPGKAPKLMIYEVSKRPSGVSNRFSGSKSGNTASLTISGLQAEDEADYYCCSYAGSSTLVFGGGTKLTVL
# B4: antibody 475 (antibody, V domains shown)
# VH: QVQLVESGGGVVQPGRSLRLSCAASGFTFSSYAMHWVRQAPGKGLEWVTFISHEGSNKYYADSVKGRFTISRDNSKNTLYLQMNSLRAEDTAVYYCARTFEYSSSSATGDFDYWGQGTLVTVSS
# VL: QSVLTQPPSVSGAPGQRVTISCTGSSSNIGAGYDVHWYQQLPGTAPKLLIYGNSNRPSGVPDRFSGSKSGTSASLAITGLQAEDEADYYCQSYDSSLSGVVFGGGTKLTVL
# B5: antibody 452 (antibody, V domains shown)
# VH: QVQLVESGGGLVKPGGSLRLSCAASGFTFSDYYLSWIRQAPGKGLEWVSYISSSGSNIYYADSVKGRFTISRDNAKNSLYLQMNSLRADDTAVFYCARAGRYCSGGSCRVEYFQHWGQGTLVTVSS
# VL: SYELTQPPSVSVSPGQTARITCSGDALPKQYAYWYQQKPGQAPVLVIYKDNERPSGIPERFSGSSSGTTATLTISGVQAEDEADYYCQSADSSGTVVFGGGTKLTVL
# B6: antibody 434 (antibody, V domains shown)
# VH: QVQLVQSGAEVKKPGASVQVSCKASGYTFSDYYIFWVRQAPGQGLEWMGCINPKSGGAIYAQRFQGRVTMTRDTSFNTAYMEMNRLGSDDTAVYYCVTRGPPDIAASGFAWHLDVWGQGTTVTVSS
# VL: DIVMTQSPLSLPVTPGEPASISCRSSQSLLSSNGYNYLEWYLQKPGQSPQLLMYLGSNRASGVPDRFSGSGSGTDFTLKINRVEAEDVGVYYCMQALQTPLTFGGGTKVEIK
# B7: antibody 443 (antibody, V domains shown)
# VH: QMRLEESGPGLVKPSETLSLTCTVAGGSITSSDYFWGWLRQSPGKGLEWIASTYHGGSIQYHPALKSRVTISVDASKNQISLRLSSVTAADTAVYYCARDRGDDGPMGTYYFDHWGQGALVTVSS
# VL: QSVLTQPPSVSGAPGQSVTISCAGSSSNIGAGHDVHWYQQIPGTAPKLLICGNTNRPSGVPERFSGSRSGTSASLAITGLQAEDEAVYYCQSYDPSHVFFGTGTKLTVL
# B8: antibody 474 (antibody, V domains shown)
# VH: EVQLVESGGGLVQPGGSLRLSCAASGFTFSSYWMHWVRQAPGKGLVWVSRINSDGSSTSYADSVKGRFTISRDNAKNTLYRQMNSLRAEDTAVYYCALGPLDIVGSYYYYGMDVWGQGTTVTVSS
# VL: NFMLTQPHSVSESPGKTVTISCTGSSGSIASNYVQWYQQRPGSAPTTVIYEDNQRPSGVPDRFSGSIDSSSNSASLTISGLKTEDEADYYCQSYDSSNQDVVFGGGTKLTVL
# B9: antibody 444 (antibody, V domains shown)
# VH: QVQLVESGGGLVKPGGSLRLSCAASGFTFSDYYMSWIRQAPGKGLEWVSYISSSGSTIYYADSVKGRFTISRDNAKNSLYLQMNSLRAEDTAVYYCARERKVVVAATRNYYYYYGMDVWGQGTTVTVSS
# VL: SYELTQPPSVSVSPGQTARITCSGDALPKQYAYWYQQKPGQAPVLVIYKDSERPSGIPERFSGSSSGTTVTLTISGVQAEDEADYYCQSADSSTWVFGGGTKLTVL
# B10: antibody 446 (antibody, V domains shown)
# VH: B2 VH with P100N, R101S, G103S, S104Y, Y105F, Y106G, P107Y, D109Q, P110H
# VL: QSVLTQPPSVSGAPGQRVTISCTGSSSNIGAGYDVHWYQQLPGTAPKLLIYGNSNRPSGVPDRFSGSKSGTSASLAITGLQAEDEADYYCQSYDSSLSGFYVFGTGTKVTVL
# B11: antibody 454 (antibody, V domains shown)
# VH: QVQLVQSGAEVKKPGASLKVSCKASGYIFTGYYMHWVRQAPGQGLEWMGWISPNSGGTKYAQKFQGRVTMTRDTSISTAYMELSRLRSDDSAVYYCAREPYYDILTGYYTPRRYLDYWGQGTLVTVSS
# VL: QSALTQPASVSGSPGQSITISCTGTSSDVGDYNYVSWYQQHPGKVPKLMIYDVSHRPSGVTNRFSGSKSGNTASLTISGLRAEDEADYYCSSYTSSSTYVFGTGTKVTVL
# B12: antibody 476 (antibody, V domains shown)
# VH: QVQLVQSGSELKKPGASVKVSCKASGYTFTSYAMNWVRQAPGQGLEWMGWINTNTGNPTYAQGFTGRFVFSLDTSVSTAYLQISSLKAEDTGVYYCARDHELPNSSSWFGHFEYWGQGTLVTVSS
# VL: SYELTQPPSVSVSPGQTARITCSGDALPKQYAYWYQQKAGQAPVLVIYKDSERRSGIPERFSGSSSGTTVTLTISGVQAEDEADYYCQSADSSGTSVVFGGGTKLTVL
# B13: anti-SARS-CoV-2 antibody 395 (antibody, V domains shown)
# VH: QVQLVQSGSELKKPGASVKLSCQASGYTFSNHAMNWVRQAPGQGLEWMGWINTNTGNPTYAQGFTGRFVFSLDTSVGTAYLHISSLKAEDTAFYYCARASARPGVATNLDFWGQGTLVVVSS
# VL: DIQMTQSPSSLSASVGDRVTITCRTSQNIDNYLNWYQQKPGKAPNLLIYAASRLHSGVPSRFSGSGSGTDFTLIISSLQPEDLATYYCQQSYSNPLTFGPGTKVDIR
# B14: anti-SARS-CoV-2 antibody 431 (antibody, V domains shown)
# VH: B2 VH with V48L, P99S, P100F, S104Y, P107G, F108M, P110V, L116T
# VL: DIQLTQSPSFLSASVGDRVTITCRASQGISSYLAWYQQKPGKAPKLLIYAASTLQSGVPSRFSGSGSGTEFTLTISSLQPEDFATYYCQQLNSYPLFTFGPGTKVDIK
# B15: anti-SARS-CoV-2 antibody 405 (antibody, V domains shown)
# VH: not shown
# VL: B3 VL with A8R, I18V, S31G, L34Y, E52D, S61P, N62D, S97Y, T98N, L99V
# B16: anti-SARS-CoV-2 antibody 412 (antibody, V domains shown)
# VH: QVQLVQSGAEVKKPGASVKVSCKASGYTFTSYGISWVRQAPGQGLEWMGWISAYNGNTNYAQKLQGRVTMTTDTSTSTAYMELRSLRSDDTAVYYCARVTVEAIFGVVILPLKNWFDPWGQGTLVTVSS
# VL: B4 VL with S98T, G99L, V100Y, G104T, L108V
# B17: anti-SARS-CoV-2 antibody 404 (antibody, V domains shown)
# VH: QVQLVESGGGVVQPGRSLRLSCAASGFTFSSYGMHWVRQAPGKGLEWVAVIWYDGSNKYYADSVKGRFTISRDNSKNTLYLQMNSLRAEDTAVYYCARLAVDISFDGSDGMDVWGQGTTVTVSS
# VL: SYELTQPPSVSVSPGQTARITCSGDALPKKYAYWYQQKSGQAPVLVIYEDSKRPSGIPERFSGSSSGTMATLTISGAQVEDEADYYCYSTDSSGKGVFGTGTKVTVL
# B18: anti-SARS-CoV-2 antibody 423 (antibody, V domains shown)
# VH: EVQLVESGGGLIQPGGSLRISCAASGFTVRNNHMSWVRQAPGKGLEWVSVFYRGGTTYYADSVKGRFTISRDDSKNTVDLQMNSLRGEDTAVYYCARGLSVAASGYFDCWGQGTLVTVSS
# VL: DIQMTQSPSSVSASVGDTVTITCRANQGISSWLAWYQQVPGKAPELLIYATSTLQSGVPSRFSGSGSGTDFTLTISSLQPEDFATYYCQQANSFPFTFGPGTKVDIK
# B19: anti-SARS-CoV-2 antibody 396 (antibody, V domains shown)
# VH: QVQLQQWGAGLLKPSETLSLTCAVYGGSFSGYYWSWIRQPPGKGLEWIGEIIHSGSTNYNPSLKSRVTISVDTSKNQFSLKLSSVTAADTAVYYSARRTGLLWFREGSYYFDYWGQGTLVTVSS
# VL: DIQMTQSPSSLSASVGDRVTITCRASQGIRNDLGWYQQKPGKAPKRLIYAASSLQSGVPSRFSGSGSGTEFTLTISSLQPEDFATYYCLQHNSYPLTFGGGTKVEIK
# B20: anti-SARS-CoV-2 antibody 422 (antibody, V domains shown)
# VH: QVQLVQSGSELKKPGASVKVSCKASGYTFTSYAMNWVRQAPGQGLEWMGWINTNTGNPTYAQGFTGRFVFSLDTSVSTTYLQISSLKAEDTAVYYCARVIGVVTYYYYGMDVWGQGTTVTVSS
# VL: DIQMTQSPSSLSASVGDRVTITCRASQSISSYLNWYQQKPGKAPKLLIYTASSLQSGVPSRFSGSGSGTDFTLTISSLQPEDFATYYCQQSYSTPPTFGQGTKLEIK
# B21: anti-SARS-CoV-2 antibody 421 (antibody, V domains shown)
# VH: QVQLVESGGGVVQPGRSLRLSCAASGFTFSTYAMHWVRQAPGKGLEWVAVISYDGSNKYYADSVKGRFTISRDNSKNTLYLQMNSLRAEDTAVYYCARGYGSGSYYPLYLYWGQGTLVTVSS
# VL: not shown
# B22: anti-SARS-CoV-2 antibody 407 (antibody, V domains shown)
# VH: QVQLVESGGGVVQPGRSLRLSCAASGFTFSSYGMHWVRQAPGKGLEWVAVISYDGSNKYYADSVKGRFTISRDNSKNTLYLQMNSLRAEDTAVYYCAKCGWDYDFWVGQGYGMDVWGQGTTVTVSS
# VL: not shown
# B23: anti-SARS-CoV-2 antibody 409 (antibody, V domains shown)
# VH: QVTLRESGPALVKPTQTLTLTCTFSGFSLSTSGMCVSWIRQPPGKALEWLALIDWDDDKYYSTSLKTRLTISKDTSKNQVVLTMTNMDPVDTATYYCARTTYYYVSGRRAEFDPWGQGTLVTVSS
# VL: NFMLTQPHSVSESPGKTVTISCTGSSGSIASNYVQWYQQRPGSAPTTVIYEDNQRPSGVPDRFSGSIDSSSNSASLTISGLKTEDEADYYCQSYDSSNQGVFGGGTKLTVL
# Target: SARS-CoV Spike protein (SARS-CoV, UniProt P59594 14-1190)
row,Binder,bead binding signal (fold over isotype control)
1,B1,1.3
2,B2,1.23
3,B3,1.09
4,B4,1.18
5,B5,1.09
6,B6,1.36
7,B7,1.03
8,B8,1.1
9,B9,1
10,B10,6.58
11,B11,1.1
12,B12,1.04

# Target: SARS-CoV Spike protein (full length Spike, coupled to optically encoded beads) (SARS-CoV, UniProt P59594 14-1190)
row,Binder,"median fluorescence, fold over isotype [fold over isotype]"
1,B13,1.16
2,B14,49.9
3,B15,80.9
4,B16,1.09
5,B17,1.04
6,B18,1.23
7,B19,1.36
8,B20,1.19
9,B21,1.19
10,B22,1.07
11,B23,1.03
